Data as given in CN116789836A (ZHEJIANG SHIMAI PHARMACEUTICAL CO LTD, dated 2023).

Tests used:
人DLL3蛋白(His标签) [1] = molecular target: T1, 人DLL3蛋白(His标签) (human, UniProt Q9NYJ7 27-479); experiment: ELISA, coated human DLL3 protein 100 ng per well, anti-Fc HRP detection
T1 construct: Bought protein (ACRO); also called 重组人DLL3; human DLL3 protein (His tag); not shown: His tag
T1 sequence (looked up): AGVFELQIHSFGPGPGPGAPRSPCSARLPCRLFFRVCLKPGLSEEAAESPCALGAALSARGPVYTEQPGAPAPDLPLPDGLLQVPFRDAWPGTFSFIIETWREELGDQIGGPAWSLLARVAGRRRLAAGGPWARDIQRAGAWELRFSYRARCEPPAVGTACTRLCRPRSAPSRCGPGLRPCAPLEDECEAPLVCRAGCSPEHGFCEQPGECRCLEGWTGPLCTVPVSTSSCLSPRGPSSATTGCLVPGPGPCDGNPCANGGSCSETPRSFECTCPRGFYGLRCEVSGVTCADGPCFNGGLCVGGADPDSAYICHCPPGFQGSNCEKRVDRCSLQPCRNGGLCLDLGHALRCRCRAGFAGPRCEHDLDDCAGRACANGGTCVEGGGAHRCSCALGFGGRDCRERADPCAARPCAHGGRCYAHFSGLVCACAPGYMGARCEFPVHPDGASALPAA

[2] = molecular target: T2, 细胞表面表达的DLL3 (H82 and LS174T-DLL3 cells) (human, UniProt Q9NYJ7 27-618); experiment: cell-based or functional assay
T2 sequence (looked up): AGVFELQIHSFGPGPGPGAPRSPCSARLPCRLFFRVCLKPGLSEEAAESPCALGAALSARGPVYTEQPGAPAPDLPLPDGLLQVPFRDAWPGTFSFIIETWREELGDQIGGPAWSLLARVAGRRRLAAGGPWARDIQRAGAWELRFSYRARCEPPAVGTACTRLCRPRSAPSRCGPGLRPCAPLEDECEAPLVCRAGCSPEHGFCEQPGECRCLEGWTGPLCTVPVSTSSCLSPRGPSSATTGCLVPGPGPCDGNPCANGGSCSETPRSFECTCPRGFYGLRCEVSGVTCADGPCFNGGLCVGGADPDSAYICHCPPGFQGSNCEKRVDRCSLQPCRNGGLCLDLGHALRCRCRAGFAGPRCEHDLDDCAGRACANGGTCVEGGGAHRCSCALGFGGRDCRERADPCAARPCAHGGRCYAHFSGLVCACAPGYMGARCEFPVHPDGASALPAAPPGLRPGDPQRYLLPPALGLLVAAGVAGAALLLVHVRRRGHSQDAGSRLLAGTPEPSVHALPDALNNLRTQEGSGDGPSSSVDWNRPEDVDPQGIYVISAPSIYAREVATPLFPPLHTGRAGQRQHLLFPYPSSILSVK

[3] = molecular target: T3, 效应细胞的CD3抗原 (CD3 on Jurkat-NFAT-CD3 cells and human T cells) (human); experiment: cell-based or functional assay
T3 chain: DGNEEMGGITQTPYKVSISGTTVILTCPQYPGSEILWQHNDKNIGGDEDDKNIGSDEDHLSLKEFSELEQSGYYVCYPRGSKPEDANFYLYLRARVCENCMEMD

人DLL3蛋白(His标签) [4] = molecular target: T1, 人DLL3蛋白(His标签); experiment: ELISA, coated human DLL3 protein
人CD3蛋白 = molecular target: T4, 人CD3蛋白 (human); experiment: ELISA, coated human CD3 protein
T4 chain: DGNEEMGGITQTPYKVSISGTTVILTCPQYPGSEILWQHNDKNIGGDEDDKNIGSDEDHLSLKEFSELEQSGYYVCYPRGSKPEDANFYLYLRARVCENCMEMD

| EC50 (人DLL3蛋白(His标签) [1]) [µg/mL] | T cell activation (Jurkat-NFAT-CD3 luciferase reporter) with H82 target cells, EC50 [2] [µg/mL] | T cell activation (Jurkat-NFAT-CD3 luciferase reporter) with LS174T-DLL3 target cells, EC50 [2] [µg/mL] | T cell activation (Jurkat-NFAT-CD3 luciferase reporter) with H82 target cells, EC50 [3] [µg/mL] | T cell activation (Jurkat-NFAT-CD3 luciferase reporter) with LS174T-DLL3 target cells, EC50 [3] [µg/mL] | EC50 (人DLL3蛋白(His标签) [4]) [µg/mL] | EC50 (人CD3蛋白) [µg/mL] | Binder | CTL EC50 (T cell dependent cytotoxicity on LS174T-DLL3 cells, human T cells, CCK8) [2] [µg/mL] | CTL EC50 (T cell dependent cytotoxicity on LS174T-DLL3 cells, human T cells, CCK8) [3] [µg/mL] |
| --- | --- | --- | --- | --- | --- | --- | --- | --- | --- |
| 0.0295 | – | – | – | – | – | – | DLL3-1G2 mAb (antibody, human IgG1, kappa, V domains shown, Chimeric full IgG1: Fab of murine clone 1G2 fused to human IgG1 Fc; also called 抗DLL3单克隆抗体) VH: QVQLQQPGAELVRPGASVKLSCKASGYSFTSYWMNWVKQRPGQGLEWIGMIHPSDSETRLNQKFKDKATLTVDKSSSTAYMQLSSPTSEDSAVYYCARWDYYDYAWFAYWGQGTLVTVSA VL: DVLMTQTPLSLPVSLGDQASISCRSSQSIVHSNGDTYLEWYLQKPGQSPNLLIYKVSNRFSGVPDRFSGSGSGTDFTLKISRVEAEDLGVYHCFQGSHVPWTFGGGTKLEIKR | – | – |
| – | ~4.02 | ~5.47 | ~4.02 | ~5.47 | 0.378 | 1.45 | DLL3-1G2H1L1-M6MV1-1 (bispecific antibody, human IgG1, kappa, also called DLL3×CD3 BiTE) light: QVQLVQSGAELKKPGASVKLSCKASGYSFTSYWMNWVRQAPGQGLEWMGMIHPSDSETRLNQKFKDRVTLTVDKSSSTAYMELSSLTSEDTAVYYCARWDYYDYAWFAYWGQGTLVTVSSGGGGSGGGGSGGGGSDVVMTQTPLSLPVTLGQPASISCRSSQSIVHSNGDTYLEWYLQKPGQSPQLLIYKVSNRFSGVPDRFSGSGSGTDFTLKISRVEAEDVGVYYCFQGSHVPWTFGQGTKVEIKGSGGGGSGGGGSEIVVTQSPATLSVSPGERATLSCRSSTGAVTTSNYANWVQQKPGQAPRGLIGGANKRAPGVPARFSGSLSGDEATLTISSLQSEDFAVYYCALWYSNLWVFGQGTKLEIKRTVAAPSVFIFPPSDEQLKSGTASVVCLLNNFYPREAKVQWKVDNALQSGNSQESVTEQDSKDSTYSLSSTLTLSKADYEKHKVYACEVTHQGLSSPVTKSFNRGECGGSGSCPPCPAPEAAGAPSVFLFPPKPKDTLMISRTPEVTCVVVDVSHEDPEVKFNWYVDGVEVHNAKTKPREEQYNSTYRVVSVLTVLHQDWLNGKEYKCKVSNKALGAPIEKTISKAKGQPREPQVYTLPPSRDELTKNQVSLLCLVKGFYPSDIAVEWESNGQPENNYKTTPPVLDSDGSFFLHSKLTVDKSRWQQGNVFSCSVMHEALHNHYTQKSLSLSPG heavy: EVQLVESGGGLVQPGGSLRLSCAASGFTFNTYAMNWVRQAPGKGLEWVARIRSKYNNYATYYADSVKGRFTISRDDSKNTLYLQMNSLRAEDTAVYYCARHGNFGSSYVSYFAYWGQGTTVTVSSASTKGPSVFPLAPSSKSTSGGTAALGCLVKDYFPEPVTVSWNSGALTSGVHTFPAVLQSSGLYSLSSVVTVPSSSLGTQTYICNVNHKPSNTKVDKKVEPKSCDKTHTCPPCPAPEAAGAPSVFLFPPKPKDTLMISRTPEVTCVVVDVSHEDPEVKFNWYVDGVEVHNAKTKPREEQYNSTYRVVSVLTVLHQDWLNGKEYKCKVSNKALGAPIEKTISKAKGQPREPQVYTLPPSRDELTKNQVSLLCLVKGFYPSDIAVEWESNGQPENNYKTTPPVLDSDGSFFLHSKLTVDKSRWQQGNVFSCSVMHEALHNHYTQKSLSLSPG | 0.305 | 0.305 |
| – | ~1.97 | ~2.7 | ~1.97 | ~2.7 | 0.267 | 0.892 | DLL3-1G2H2L1-M6MV1-1 (bispecific antibody, human IgG1, kappa, also called DLL3×CD3 BiTE) light: QVQLVQSGAELKRPGASVKLSCKASGYSFTSYWMNWVRQAPGQGLEWIGMIHPSDSETRLNQKFKDKATLTVDKSSSTAYMELSSLTSEDSAVYYCARWDYYDYAWFAYWGQGTLVTVSSGGGGSGGGGSGGGGSDVVMTQTPLSLPVTLGQPASISCRSSQSIVHSNGDTYLEWYLQKPGQSPQLLIYKVSNRFSGVPDRFSGSGSGTDFTLKISRVEAEDVGVYYCFQGSHVPWTFGQGTKVEIKGSGGGGSGGGGSEIVVTQSPATLSVSPGERATLSCRSSTGAVTTSNYANWVQQKPGQAPRGLIGGANKRAPGVPARFSGSLSGDEATLTISSLQSEDFAVYYCALWYSNLWVFGQGTKLEIKRTVAAPSVFIFPPSDEQLKSGTASVVCLLNNFYPREAKVQWKVDNALQSGNSQESVTEQDSKDSTYSLSSTLTLSKADYEKHKVYACEVTHQGLSSPVTKSFNRGECGGSGSCPPCPAPEAAGAPSVFLFPPKPKDTLMISRTPEVTCVVVDVSHEDPEVKFNWYVDGVEVHNAKTKPREEQYNSTYRVVSVLTVLHQDWLNGKEYKCKVSNKALGAPIEKTISKAKGQPREPQVYTLPPSRDELTKNQVSLLCLVKGFYPSDIAVEWESNGQPENNYKTTPPVLDSDGSFFLHSKLTVDKSRWQQGNVFSCSVMHEALHNHYTQKSLSLSPG heavy: EVQLVESGGGLVQPGGSLRLSCAASGFTFNTYAMNWVRQAPGKGLEWVARIRSKYNNYATYYADSVKGRFTISRDDSKNTLYLQMNSLRAEDTAVYYCARHGNFGSSYVSYFAYWGQGTTVTVSSASTKGPSVFPLAPSSKSTSGGTAALGCLVKDYFPEPVTVSWNSGALTSGVHTFPAVLQSSGLYSLSSVVTVPSSSLGTQTYICNVNHKPSNTKVDKKVEPKSCDKTHTCPPCPAPEAAGAPSVFLFPPKPKDTLMISRTPEVTCVVVDVSHEDPEVKFNWYVDGVEVHNAKTKPREEQYNSTYRVVSVLTVLHQDWLNGKEYKCKVSNKALGAPIEKTISKAKGQPREPQVYTLPPSRDELTKNQVSLLCLVKGFYPSDIAVEWESNGQPENNYKTTPPVLDSDGSFFLHSKLTVDKSRWQQGNVFSCSVMHEALHNHYTQKSLSLSPG | 0.104 | 0.104 |
